Non-standard residues stand in square brackets, D forms with d. No end group written: not given here. Trp(5-OH) = N[C@@H](Cc1c[nH]c2ccc(O)cc12)C(=O)O; Phe(4-NH2) = Nc1ccc(C[C@H](N)C(=O)O)cc1
How the values were obtained:
[1] = target: T1, PSD-95 PDZ3cα (residues R309-S422) (Homo sapiens, UniProt P78352); assay: SPR binding of peptides to immobilized PDZ3cα
[2] = target: T1, PSD-95 PDZ3cα (residues R309-S422); assay: SPR
AS mouse model = AS mouse model / animal studies; assay type: in vivo; settings: data to be reported elsewhere
[3] = target: PSD-95 PDZ3cα protein (residues R309-S422) (UniProt P78352 309-422); assay: SPR
Chain of PSD-95 PDZ3cα protein (residues R309-S422) (P78352 309-422): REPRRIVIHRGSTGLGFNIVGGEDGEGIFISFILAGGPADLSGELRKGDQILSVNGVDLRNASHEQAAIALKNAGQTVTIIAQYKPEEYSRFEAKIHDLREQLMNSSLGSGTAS

T1 sequence (P78352 309-422): as above

| Molecule | koff [3] [s⁻¹] | kon [3] [M⁻¹ s⁻¹] | Kd [1] [nM] | further results |
| --- | --- | --- | --- | --- |
| RRRRRRGSFPPWLQQTRV [V8L] | – | – | 58.4 | – |
| SYNGAP peptide V8I | – | – | – | koff [2]: 0.00294 s⁻¹ |
| RRRRRRGSHPPWVQQTRV [F4H] | – | – | 121 | – |
| CC(C)[C@H](NC(=O)[C@H](CCCNC(=N)N)NC(=O)[C@@H](NC(=O)[C@H](CCC(N)=O)NC(=O)[C@H](CCC(N)=O)NC(=O)[C@@H](NC(=O)[C@H](Cc1c[nH]c2ccccc12)NC(=O)[C@@H]1CCCN1C(=O)[C@H]1CCCN1C(=O)[C@H](Cc1ccccc1)NC(=O)[C@H](CO)NC(=O)CNC(=O)[C@H](CCCNC(=N)N)NC(=O)[C@H](CCCNC(=N)N)NC(=O)[C@H](CCCNC(=N)N)NC(=O)[C@H](CCCNC(=N)N)NC(=O)[C@H](CCCNC(=N)N)NC(=O)[C@@H](N)CCCNC(=N)N)C(C)C)[C@@H](C)O)C(=O)O [D-Pro4] | – | – | 6.1 | – |
| CC(C)[C@H](NC(=O)[C@H](CCCNC(=N)N)NC(=O)[C@@H](NC(=O)[C@H](CCC(N)=O)NC(=O)[C@H](CCC(N)=O)NC(=O)[C@@H](NC(=O)[C@H](Cc1c[nH]c2ccccc12)NC(=O)[C@@H]1CCCN1C(=O)[C@@H]1CCCN1C(=O)[C@H](Cc1ccccc1)NC(=O)[C@H](CO)NC(=O)CNC(=O)[C@H](CS)NC(=O)[C@H](CS)NC(=O)[C@H](CCCNC(=N)N)NC(=O)[C@H](CCCNC(=N)N)NC(=O)[C@H](CCCNC(=N)N)NC(=O)[C@H](CCCNC(=N)N)NC(=O)[C@H](CCCNC(=N)N)NC(=O)[C@H](CCCNC(=N)N)NC(=O)[C@@H](N)CCCNC(=N)N)C(C)C)[C@@H](C)O)C(=O)O [SYNGAP] | – | – | – | effect in AS mouse model / animal studies (AS mouse model): did not have the same beneficial effects as Syn3 |
| SYNGAP peptide F4H | – | – | – | koff [2]: 0.0261 s⁻¹; kon [2]: 216000 M⁻¹ s⁻¹ |
| RRRRRRGSFPPWIQQTRV [V8I] | – | – | 101 | – |
| CC(C)[C@H](NC(=O)[C@H](CCCNC(=N)N)NC(=O)[C@@H](NC(=O)[C@H](CCC(N)=O)NC(=O)[C@H](CCC(N)=O)NC(=O)[C@H](NC(=O)[C@H](Cc1c[nH]c2ccccc12)NC(=O)[C@@H]1CCCN1C(=O)[C@@H]1CCCN1C(=O)[C@H](Cc1ccccc1)NC(=O)[C@H](CO)NC(=O)CNC(=O)[C@H](CCCNC(=N)N)NC(=O)[C@H](CCCNC(=N)N)NC(=O)[C@H](CCCNC(=N)N)NC(=O)[C@H](CCCNC(=N)N)NC(=O)[C@H](CCCNC(=N)N)NC(=O)[C@@H](N)CCCNC(=N)N)C(C)C)[C@@H](C)O)C(=O)O [D-Val8] | – | – | 20.9 | – |
| SYNGAP peptide V8L | – | – | – | koff [2]: 0.00381 s⁻¹ |
| CC(C)[C@H](NC(=O)[C@H](CCCNC(=N)N)NC(=O)[C@@H](NC(=O)[C@H](CCC(N)=O)NC(=O)[C@H](CCC(N)=O)NC(=O)[C@@H](NC(=O)[C@H](Cc1c[nH]c2ccccc12)NC(=O)[C@@H]1CCCN1C(=O)[C@@H]1CCCN1C(=O)[C@H](Cc1ccccc1)NC(=O)[C@@H](CO)NC(=O)CNC(=O)[C@H](CCCNC(=N)N)NC(=O)[C@H](CCCNC(=N)N)NC(=O)[C@H](CCCNC(=N)N)NC(=O)[C@H](CCCNC(=N)N)NC(=O)[C@H](CCCNC(=N)N)NC(=O)[C@@H](N)CCCNC(=N)N)C(C)C)[C@@H](C)O)C(=O)O [D-Ser3] | – | – | 7.8 | – |
| CC(C)[C@H](NC(=O)[C@H](CCCNC(=N)N)NC(=O)[C@@H](NC(=O)[C@H](CCC(N)=O)NC(=O)[C@H](CCC(N)=O)NC(=O)[C@@H](NC(=O)[C@H](Cc1c[nH]c2ccccc12)NC(=O)[C@H]1CCCN1C(=O)[C@@H]1CCCN1C(=O)[C@H](Cc1ccccc1)NC(=O)[C@H](CO)NC(=O)CNC(=O)[C@H](CCCNC(=N)N)NC(=O)[C@H](CCCNC(=N)N)NC(=O)[C@H](CCCNC(=N)N)NC(=O)[C@H](CCCNC(=N)N)NC(=O)[C@H](CCCNC(=N)N)NC(=O)[C@@H](N)CCCNC(=N)N)C(C)C)[C@@H](C)O)C(=O)O [D-Pro5] | – | – | 24.3 | – |
| GSFPPWVQ [aC binder, reference compound] | – | – | 11100 | – |
| CC(C)[C@H](NC(=O)[C@H](CCCNC(=N)N)NC(=O)[C@@H](NC(=O)[C@H](CCC(N)=O)NC(=O)[C@@H](CCC(N)=O)NC(=O)[C@@H](NC(=O)[C@H](Cc1c[nH]c2ccccc12)NC(=O)[C@@H]1CCCN1C(=O)[C@@H]1CCCN1C(=O)[C@H](Cc1ccccc1)NC(=O)[C@H](CO)NC(=O)CNC(=O)[C@H](CCCNC(=N)N)NC(=O)[C@H](CCCNC(=N)N)NC(=O)[C@H](CCCNC(=N)N)NC(=O)[C@H](CCCNC(=N)N)NC(=O)[C@H](CCCNC(=N)N)NC(=O)[C@@H](N)CCCNC(=N)N)C(C)C)[C@@H](C)O)C(=O)O [D-Gln9] | – | – | 57.3 | – |
| GSFPPWVQ [aC binder peptide] | 0.00592 | 1000 | – | – |
| CGSFPPWVKKTEV (not fully specified) [Syn3*] | 0.0287 | 439000 | – | – |
| RRRRRRGSFPPWV[dQ]QTRV [SYNGAP peptide D-Gln9] | 0.0182 | 317000 | – | – |
| RRRRRRGSFPP[Trp(5-OH)]VQQTRV [SYNGAP peptide W7-OHW] | 0.0106 | 24000 | – | – |
| RRRRRRG[dS]FPPWVQQTRV [SYNGAP peptide D-Ser3] | 0.00493 | 633000 | – | – |

The next lines start with results.

| koff [3] [s⁻¹] | kon [3] [M⁻¹ s⁻¹] | Molecule | Kd [1] [nM] | further results |
| --- | --- | --- | --- | --- |
| 0.0459 | 2.19e+06 | RRRRRRGSFPPW[dV]QQTRV [SYNGAP peptide D-Val8] | – | – |
| 0.0125 | 458000 | D-Syn3 (cysteine pairing not given here; also: D- prefix in name, meaning not given here) chain 1: RRRRRRRC chain 2: CGSFPPWVQKTEV | – | – |
| 0.0104 | 153000 | RRRRRRGS[Phe(4-NH2)]PPWVQQTRV [SYNGAP peptide F4-NH2F] | – | – |
| 0.0444 | 1.83e+06 | RRRRRRGSFP[dP]WVQQTRV [SYNGAP peptide D-Pro5] | – | – |
| 0.00109 | 6000 | CN2097 (peptide) chain 1: RRRRRRRC chain 2: CKNYKKTEV | – | – |
| 0.0116 | 1.88e+06 | RRRRRRGSF[dP]PWVQQTRV [SYNGAP peptide D-Pro4] | – | – |

— PMC10441386 (bioRxiv, 2023)
